B1: Azoarcus group I ribozyme (parent)
chain: GUGCCUUGCGCCGGGAAACCACGCAAGGGAUGGUGUCAAAUUCGGCGAAACCUAAGCGCCCGCCCGGGCGUAUGGCAACGCCGAGCCAAGCUUCGGCGCCUGCGCCGAUGAAGGUGUAGAGACUAGACGGCACCCACCUAAGGCAAACGCUAUGGUGAAGGCAUAGUCCAGGGAGUGGCGAAAGUCACACAAACCGG

The data set covers variants of B1. Briefly: reverse-splicing fitness (ratio to wild type); higher = more active; in vitro selection; Mg2+ level not given. An outline of the steps:
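An in vitro group I ribozyme library with randomized positions was T7-transcribed and gel-purified. In triplicate, 10 pmol RNA in EPPS pH 7.5 was reacted with 50 pmoles of a 30-nt RNA substrate for 1 h at 37 °C across several added MgCl2 levels (1–48 mM), then stopped with EDTA. Products were reverse transcribed from a substrate-complementary primer, PCR-amplified and sequenced (HiSeq 4000). Fitness is a variant's read proportion after selection over that before, normalised to wild type.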
Take GUGCCUUGCGCCGGGAAACCACGCAAGGGAUGGUGUCAAAUUCGGCGAAACCUAAGCGCCCGCCCGGGCGUAUGGCAACGCCGAGCCAAGCUUCGGCGCCUGCGCCGAUGAAGGUGUAGGGACUAGACGGCACCCACCUAAGGCCAACGGUAUGGUGAAGGCAUAGUCAAGGGAGGGGCGAAAGUCACACAAACCGG [A120G A145C C150G C169A U176G]: the reverse-splicing fitness came to 0.00448. The value for GUGCCUUGCGCCGGGAAACCACGCAAGGGAUGGUGUCAAAUUCGGCGAAACCUAAGCGCCCGCCCGGGCGUAUGGCAACGCCGAGCCAAGCUUCGGCGCCUGCGCCGAUGUAGGUGUAGAGACUAGACGGCACCCACCUAAGGCUAACGGUAUGGUGAAGGCAUAGUCCAGGGAGCGGCGAAAGUCACACAAACCGG [A111U A145U C150G U176C] was 0.193. As to GUGCCUUGCGCCGGGAAACCACGCAAGGGAUGGUGUCAAAUUCGGCGAAACCUAAGCGCCCGCCCGGGCGUAUGGCAACGCCGAGCCAAGCUUCGGCGCCUGCGCCGAUGUAGGUGUAGAGACUAGACGGCACCCACCUAAGGCAAACGCUAUGGUGAAGGCAUAGUCAAGGGAGAGGCGAAAGUCACACAAACCGG [A111U C169A U176A], the reverse-splicing fitness stood at 0.0172. The value for GUGCCUUGCGCCGGGAAACCACGCAAGGGAUGGUGUCAAAUUCGGCGAAACCUAAGCGCCCGCCCGGGCGUAUGGCAACGCCGAGCCAAGCUUCGGCGCCUGCGCCGAUGAAGGUGUAGUGACUAGACGGCACCCACCUAAGGCAAACGUUAUGGUGAAGGCAUAGUCUAGGGAGGGGCGAAAGUCACACAAACCGG [A120U C150U C169U U176G] was 0.00872.

GUGCCUUGCGCCGGGAAACCACGCAAGGGAUGGUGUCAAAUUCGGCGAAACCUAAGCGCCCGCCCGGGCGUAUGGCAACGCCGAGCCAAGCUUCGGCGCCUGCGCCGAUGCAGGUGUAGAGACUAGACGGCACCCACCUAAGGCUAACGGUAUGGUGAAGGCAUAGUCAAGGGAGUGGCGAAAGUCACACAAACCGG [A111C A145U C150G C169A]: the reverse-splicing fitness worked out at 0.00994. The value for GUGCCUUGCGCCGGGAAACCACGCAAGGGAUGGUGUCAAAUUCGGCGAAACCUAAGCGCCCGCCCGGGCGUAUGGCAACGCGGAGCCAAGCUUCGGCGCCUGCGCCGAUGGAGGUGUAGCGACUAGACGGCACCCACCUAAGGCGAACGUUAUGGUGAAGGCAUAGUCUAGGGAGCGGCGAAAGUCACACAAACCGG [C82G A111G A120C A145G C150U C169U U176C] was 0.0145.

Turning to GUGCCUUGCGCCGGGAAACCACGCAAGGGAUGGUGUCAAAUUCGGCGAAACCUAAGCGCCCGCCCGGGCGUAUGGCAACGCUGAGCCAAGCUUCGGCGCCUGCGCCGAUGUAGGUGUAGAGACUAGACGGCACCCACCUAAGGCGAACGUUAUGGUGAAGGCAUAGUCCAGGGAGCGGCGAAAGUCACACAAACCGG [C82U A111U A145G C150U U176C], the reverse-splicing fitness was 0.12. The value for GUGCCUUGCGCCGGGAAACCACGCAAGGGAUGGUGUCAAAUUCGGCGAAACCUAAGCGCCCGCCCGGGCGUAUGGCAACGCCGAGCCAAGCUUCGGCGCCUGCGCCGAUGCAGGUGUAGAGACUAGACGGCACCCACCUAAGGCGAACGCUAUGGUGAAGGCAUAGUCGAGGGAGGGGCGAAAGUCACACAAACCGG [A111C A145G C169G U176G] was 0.00716. Regarding GUGCCUUGCGCCGGGAAACCACGCAAGGGAUGGUGUCAAAUUCGGCGAAACCUAAGCGCCCGCCCGGGCGUAUGGCAACGCGGAGCCAAGCUUCGGCGCCUGCGCCGAUGUAGGUGUAGCGACUAGACGGCACCCACCUAAGGCCAACGCUAUGGUGAAGGCAUAGUCUAGGGAGUGGCGAAAGUCACACAAACCGG [C82G A111U A120C A145C C169U], the reverse-splicing fitness is 0.0119.

In the case of GUGCCUUGCGCCGGGAAACCACGCAAGGGAUGGUGUCAAAUUCGGCGAAACCUAAGCGCCCGCCCGGGCGUAUGGCAACGCAGAGCCAAGCUUCGGCGCCUGCGCCGAUGGAGGUGUAGGGACUAGACGGCACCCACCUAAGGCUAACGGUAUGGUGAAGGCAUAGUCUAGGGAGCGGCGAAAGUCACACAAACCGG [C82A A111G A120G A145U C150G C169U U176C], the reverse-splicing fitness was determined as 0.0132. The value for GUGCCUUGCGCCGGGAAACCACGCAAGGGAUGGUGUCAAAUUCGGCGAAACCUAAGCGCCCGCCCGGGCGUAUGGCAACGCGGAGCCAAGCUUCGGCGCCUGCGCCGAUGAAGGUGUAGUGACUAGACGGCACCCACCUAAGGCUAACGAUAUGGUGAAGGCAUAGUCGAGGGAGUGGCGAAAGUCACACAAACCGG [C82G A120U A145U C150A C169G] was 0.00252; that for GUGCCUUGCGCCGGGAAACCACGCAAGGGAUGGUGUCAAAUUCGGCGAAACCUAAGCGCCCGCCCGGGCGUAUGGCAACGCGGAGCCAAGCUUCGGCGCCUGCGCCGAUGUAGGUGUAGAGACUAGACGGCACCCACCUAAGGCCAACGAUAUGGUGAAGGCAUAGUCCAGGGAGCGGCGAAAGUCACACAAACCGG [C82G A111U A145C C150A U176C] was 0.0187. The value for GUGCCUUGCGCCGGGAAACCACGCAAGGGAUGGUGUCAAAUUCGGCGAAACCUAAGCGCCCGCCCGGGCGUAUGGCAACGCCGAGCCAAGCUUCGGCGCCUGCGCCGAUGGAGGUGUAGCGACUAGACGGCACCCACCUAAGGCCAACGCUAUGGUGAAGGCAUAGUCGAGGGAGGGGCGAAAGUCACACAAACCGG [A111G A120C A145C C169G U176G] was 0.00352; that for GUGCCUUGCGCCGGGAAACCACGCAAGGGAUGGUGUCAAAUUCGGCGAAACCUAAGCGCCCGCCCGGGCGUAUGGCAACGCUGAGCCAAGCUUCGGCGCCUGCGCCGAUGCAGGUGUAGUGACUAGACGGCACCCACCUAAGGCCAACGCUAUGGUGAAGGCAUAGUCGAGGGAGAGGCGAAAGUCACACAAACCGG [C82U A111C A120U A145C C169G U176A] was 0.00206. The value for GUGCCUUGCGCCGGGAAACCACGCAAGGGAUGGUGUCAAAUUCGGCGAAACCUAAGCGCCCGCCCGGGCGUAUGGCAACGCCGAGCCAAGCUUCGGCGCCUGCGCCGAUGCAGGUGUAGCGACUAGACGGCACCCACCUAAGGCGAACGCUAUGGUGAAGGCAUAGUCGAGGGAGUGGCGAAAGUCACACAAACCGG [A111C A120C A145G C169G] was 0.0102.

(Values after the RNAGym collection of RNA variant scans (doi:10.1093/molbev/msab373).)
